Source: patent US20230158180A1 (SLOAN KETTERING INSTITUTE FOR CANCER RESEARCH, published 2023)
Blank lines part the entries; values can stand above or below the molecule they belong to. Non-standard residues stand in square brackets, D forms with d. Groups on a side chain read outwards from the residue. *: point of attachment. Cy5 silica nanoparticle = Cy5 dye-containing core-shell silica nanoparticle (~7 nm); PEG = not defined here; 124I = [124I]*

Tests used:
[1] = target: melanocortin-1 receptor (MC1R) on murine B16/F1 and B16F10 melanoma cells (mouse) (UniProt Q01727); experiment: same type of competitive binding assay (given for reference)
[2] = target: melanocortin-1 receptor (MC1R) on human M21 melanoma cells (human) (UniProt Q01726); experiment: flow cytometry dose response, M21 melanoma cells
[3] = target: melanocortin-1 receptor (MC1R) on murine B16/F1 and B16F10 melanoma cells (mouse) (UniProt Q01727); experiment: flow cytometry dose response, B16F10 melanoma cells
[4] = target: melanocortin-1 receptor (MC1R) on murine B16/F1 and B16F10 melanoma cells (mouse) (UniProt Q01727); experiment: competitive binding against ^125I-NDP, cultured B16/F1 melanoma cells
[5] = target: T1, αvβ3 integrin receptor (human, on M21 melanoma cells and HUVEC cells) (human, UniProt P06756 31-1048; P05106 27-788); experiment: cell-based or functional assay
[6] = target: T1, αvβ3 integrin receptor (human, on M21 …); experiment: Scatchard analysis, gamma counting, M21 cells
Experimental: To assay particle binding and specificity for M21 cells, 24-well plates were coated with 10 μg/ml collagen type I (BD Biosciences, Bedford, Mass.) in phosphate buffered saline (PBS) and incubated (37° C., 30 min). M21 cells (3.0-4.0×10^5 cells/well) were grown to confluency and washed with RPMI 1640 media/0.5% bovine serum albumin (BSA). ¹²⁴I-cRGD-PEG-nanoparticles (0-4.0 ng/ml) were added to wells and cells incubated (25° C., 4 hours), washed with RPMI 1640 media/0.5% BSA, and dissolved in 0.2 M NaOH. […] Nonspecific binding was determined in the presence of a 1000-fold excess of cRGD (Peptides International, Louisville, Ky.). Scatchard plots of the binding data were generated and analyzed using linear regression analyses (Microsoft Excel 2007) to derive receptor-binding parameters (Kd, Bmax, IC50).
To examine in vitro binding affinity and specificity of ¹²⁴I-cRGDY-PEG-dots and ¹²⁴I-PEGdots to tumor and vascular endothelial surfaces, αᵥβ₃ integrin-overexpressing (M21) and nonexpressing (M21L) melanoma and human umbilical vein endothelial (HUVECs) cell lines were used. Highly specific linear and saturable binding of the cRGDY-PEG-dots was observed over a range of particle concentrations (0 to 8 ng/ml) and incubation times (up to 5-hrs), with maximum differential binding at 4-hr and ˜2.0 ng/ml particle concentration (data not shown) using flow cytometry. […]

[7] = target: T1, αvβ3 integrin receptor (human, on M21 …); experiment: competitive binding, gamma counting, M21 cells
Experimental: Nonspecific binding was determined in the presence of a 1000-fold excess of cRGD (Peptides International, Louisville, Ky.). Scatchard plots of the binding data were generated and analyzed using linear regression analyses (Microsoft Excel 2007) to derive receptor-binding parameters (Kd, Bmax, IC50).
To examine in vitro binding affinity and specificity of ¹²⁴I-cRGDY-PEG-dots and ¹²⁴I-PEGdots to tumor and vascular endothelial surfaces, αᵥβ₃ integrin-overexpressing (M21) and nonexpressing (M21L) melanoma and human umbilical vein endothelial (HUVECs) cell lines were used. Highly specific linear and saturable binding of the cRGDY-PEG-dots was observed over a range of particle concentrations (0 to 8 ng/ml) and incubation times (up to 5-hrs), with maximum differential binding at 4-hr and ˜2.0 ng/ml particle concentration (data not shown) using flow cytometry. Receptor-binding specificity of ¹²⁴I-cRGDY-PEG dots was tested using γ-counting methods after initially incubating M21 cells with excess non-radiolabeled cRGD and then adding various concentrations of the radiolabeled targeted probe (FIG. 8A). […] Based on the Bmax value, the αᵥβ₃ integrin receptor density was estimated to be […] per M21 cell, in reasonable agreement with the previously published estimate of 5.6×10⁴ for this cell line. Cressman, et al., Binding and uptake of RGD-containing ligands to cellular αᵥβ₃ integrins. […]

melanocortin-1 receptor (MC1R) on murine B16/F1 and B16F10 melanoma cells (mouse), sequence (Q01727 whole entry, one chain of several): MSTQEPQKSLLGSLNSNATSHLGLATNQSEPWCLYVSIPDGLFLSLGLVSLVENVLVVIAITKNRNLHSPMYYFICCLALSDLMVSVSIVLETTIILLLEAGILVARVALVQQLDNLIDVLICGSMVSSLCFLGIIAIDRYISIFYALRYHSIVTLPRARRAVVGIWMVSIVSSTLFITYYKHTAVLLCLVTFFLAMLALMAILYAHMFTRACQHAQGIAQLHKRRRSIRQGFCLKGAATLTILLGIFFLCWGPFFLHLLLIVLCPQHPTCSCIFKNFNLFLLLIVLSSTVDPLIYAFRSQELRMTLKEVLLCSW
T1 sequence (P06756 31-1048, chain 1 of 2): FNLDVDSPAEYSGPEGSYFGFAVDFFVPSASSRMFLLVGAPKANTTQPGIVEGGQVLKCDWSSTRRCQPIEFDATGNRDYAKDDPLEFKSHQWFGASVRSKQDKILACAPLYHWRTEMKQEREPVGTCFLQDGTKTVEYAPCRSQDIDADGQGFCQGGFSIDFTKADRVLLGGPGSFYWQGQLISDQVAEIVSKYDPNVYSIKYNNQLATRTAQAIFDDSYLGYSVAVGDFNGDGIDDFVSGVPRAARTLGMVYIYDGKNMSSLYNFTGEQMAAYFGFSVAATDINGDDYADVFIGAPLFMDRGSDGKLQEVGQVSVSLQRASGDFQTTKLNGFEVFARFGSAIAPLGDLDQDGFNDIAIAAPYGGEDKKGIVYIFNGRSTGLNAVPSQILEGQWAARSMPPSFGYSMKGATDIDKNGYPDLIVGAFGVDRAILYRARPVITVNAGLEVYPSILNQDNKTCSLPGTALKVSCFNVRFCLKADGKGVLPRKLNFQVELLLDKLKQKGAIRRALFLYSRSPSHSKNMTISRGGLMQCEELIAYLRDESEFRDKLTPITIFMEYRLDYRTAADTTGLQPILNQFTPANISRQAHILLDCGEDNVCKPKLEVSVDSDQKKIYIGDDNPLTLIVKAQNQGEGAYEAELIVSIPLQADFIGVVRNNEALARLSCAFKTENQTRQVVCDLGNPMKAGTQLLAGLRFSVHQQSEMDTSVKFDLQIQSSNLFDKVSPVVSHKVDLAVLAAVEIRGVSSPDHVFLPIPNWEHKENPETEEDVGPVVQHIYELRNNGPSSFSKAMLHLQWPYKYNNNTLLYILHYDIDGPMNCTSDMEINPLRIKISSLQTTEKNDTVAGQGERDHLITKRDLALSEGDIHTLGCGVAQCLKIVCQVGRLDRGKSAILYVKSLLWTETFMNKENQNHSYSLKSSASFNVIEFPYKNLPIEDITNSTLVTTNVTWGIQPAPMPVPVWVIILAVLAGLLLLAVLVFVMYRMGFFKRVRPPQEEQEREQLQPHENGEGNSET
T1 sequence (P05106 27-788, chain 2 of 2): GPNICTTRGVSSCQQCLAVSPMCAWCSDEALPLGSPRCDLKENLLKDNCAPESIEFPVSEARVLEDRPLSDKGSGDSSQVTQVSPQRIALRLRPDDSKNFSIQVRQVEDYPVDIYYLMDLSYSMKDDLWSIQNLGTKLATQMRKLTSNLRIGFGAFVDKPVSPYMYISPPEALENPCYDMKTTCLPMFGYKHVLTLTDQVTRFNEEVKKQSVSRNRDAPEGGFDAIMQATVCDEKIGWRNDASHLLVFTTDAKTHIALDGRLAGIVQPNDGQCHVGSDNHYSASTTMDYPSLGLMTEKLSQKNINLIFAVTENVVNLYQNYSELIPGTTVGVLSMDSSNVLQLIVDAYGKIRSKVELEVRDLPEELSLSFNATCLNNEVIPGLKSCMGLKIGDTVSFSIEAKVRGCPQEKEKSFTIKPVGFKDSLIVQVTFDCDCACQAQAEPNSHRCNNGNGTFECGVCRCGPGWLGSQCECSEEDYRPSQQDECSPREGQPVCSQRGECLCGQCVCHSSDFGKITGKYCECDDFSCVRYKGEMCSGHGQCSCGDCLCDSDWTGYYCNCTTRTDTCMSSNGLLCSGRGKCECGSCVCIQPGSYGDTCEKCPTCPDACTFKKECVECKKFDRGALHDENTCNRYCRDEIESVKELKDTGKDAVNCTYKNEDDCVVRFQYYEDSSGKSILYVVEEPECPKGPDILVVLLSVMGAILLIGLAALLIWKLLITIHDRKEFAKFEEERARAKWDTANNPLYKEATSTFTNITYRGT
melanocortin-1 receptor (MC1R) on human M21 melanoma cells (human), sequence (Q01726 whole entry): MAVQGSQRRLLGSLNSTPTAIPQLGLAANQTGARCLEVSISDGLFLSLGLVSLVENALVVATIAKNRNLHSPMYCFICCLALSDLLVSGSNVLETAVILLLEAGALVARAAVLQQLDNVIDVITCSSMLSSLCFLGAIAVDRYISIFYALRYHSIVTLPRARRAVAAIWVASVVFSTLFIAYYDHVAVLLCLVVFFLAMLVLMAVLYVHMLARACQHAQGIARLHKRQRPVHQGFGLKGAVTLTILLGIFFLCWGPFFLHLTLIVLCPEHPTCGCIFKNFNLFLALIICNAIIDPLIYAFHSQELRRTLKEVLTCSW

IC50 [1]: 2.1 nM
Molecule: DOTA-ReCCMSH (original ReCCMSH targeting molecule) (peptide)

saturation concentration [2]: 100 nM
saturation concentration [3]: 100 nM
IC50 [4]: 0.66 nM
Molecule: alpha-MSH-PEG-Cy5-C dots (N-Ac-Cys-(Ahx)2-D-Lys-ReCCMSH peptide-bound nanoparticles)

methylene blue uptake (absorbance) of attached M21 cells without particle pre-incubation relative to particle-exposed cells [5]: 2 fold
multivalent enhancement factor (ratio of the cRGD peptide to cRGDY-PEG-dot IC50 values), anti-adhesion assay, M21 cells on vitronectin-coated plates [5]: > 2 fold
B1: cRGDY-PEG-dots (non-radiolabeled, cRGDY peptide-bearing, PEG-coated Cy5 core-shell silica nanoparticles) (other)
peptide: cyclo(RGD[dY]C([maleimide-PEG-Cy5 silica nanoparticle]))
modifications: not fully specified; reading uncertain; also: Cys linked via maleimide to PEG on Cy5 silica nanoparticle

Kd [6]: 0.51 nM
IC50 [7]: 1.2 nM
B2: ^124I-cRGDY-PEG-dots (radioiodinated, cRGDY peptide-bearing, PEG-coated Cy5 core-shell silica nanoparticles) (other)
peptide: cyclo(RGD[dY](124I)C([maleimide-PEG-Cy5 silica nanoparticle]))
modifications: not fully specified; reading uncertain; also: Cys linked via maleimide to PEG on Cy5 silica nanoparticle
